{
  "source": "patent US8324344B2",
  "about": "“Membrane transduction peptides and methods of delivering material to a target cell” (STC.UNM, priority 2008, dated 2012)",
  "molecules": {"B1": {"name": "R24K KD1-CT: Chimera of first Kunitz-type domain (amino acids 1-73, R24K) and carboxy-terminal tail (amino acids 187-213) of TFPI-2, SEQ ID NO:2 (protein)", "chain": "DAAQEPTGNNAEICLLPLDYGPCRALLLRYYYDRYTQSCRQFLYGGCEGNANNFYTWEACDDACWRIEKVPKVEFAKALKKKKKMPKLRFASRIRKIRKKQF", "modifications": "chimera of the first Kunitz-type domain (with the R24K mutation) and the carboxy-terminal tail"}, "B2": {"name": "R24K KD1: Mutated first Kunitz-type domain of TFPI-2 (R24K), recombinant (protein)", "chain": "DAAQEPTGNNAEICLLPLDYGPCKALLLRYYYDRYTQSCRQFLYGGCEGNANNFYTWEACDDACWRIEKVPKV", "modifications": "left off: small tags and cut ends", "notes": "Mutated first Kunitz-type domain of TFPI-2 (R24K), recombinant"}, "B3": {"name": "TFPI-2^1-188: TFPI-2 construct lacking the carboxy-terminal tail (amino acids 189-213 of SEQ ID NO:1) (protein, listed as Homo sapiens)", "chain": "DAAQEPTGNNAEICLLPLDYGPCRALLLRYYYDRYTQSCRQFLYGGCEGNANNFYTWEACDDACWRIEKVPKVCRLQVSVDDQCEGSTEKYFFNLSSMTCEKFFSGGCHRNRIENRFPDEATCMGFCAPKKIPSFCYSPKDEGLCSANVTRYYFNPRYRTCDAFTYTGCGGNDNNFVSREDCKRACAK", "modifications": "tissue factor pathway inhibitor-2"}, "B4": {"name": "Alexa Fluor 488-conjugated TFPI-2: Recombinant TFPI-2 protein labeled with Alexa Fluor 488 dye (conjugate, UniProt P48307 23-235, looked up)", "Tissue factor pathway …": "DAAQEPTGNNAEICLLPLDYGPCRALLLRYYYDRYTQSCRQFLYGGCEGNANNFYTWEACDDACWRIEKVPKVCRLQVSVDDQCEGSTEKYFFNLSSMTCEKFFSGGCHRNRIENRFPDEATCMGFCAPKKIPSFCYSPKDEGLCSANVTRYYFNPRYRTCDAFTYTGCGGNDNNFVSREDCKRACAKALKKKKKMPKLRFASRIRKIRKKQF", "modifications": "Alexa Fluor 488 label", "notes": "Recombinant TFPI-2 protein labeled with Alexa Fluor 488 dye"}},
  "key": {"HT-1080 cells [1]": {"system": "HT-1080 cells", "assay": "Internalization of offered recombinant proteins in HT-1080 cells, immunoblotting of cytosolic and nuclear fractions", "format": "cell-based, human", "conditions": "1 μM; for Internalization to cytosol and nucleus of HT-1080 cells: 37° C.", "description": "HT-1080 cells were grown in six-well plates under standard conditions. At confluence, the cells were treated with fresh medium containing either wild-type TFPI-2, TFPI-2^1-188, R24Q KD1, R24K KD1, or R24K KD1-CT as previously described (Kempaiah and Kisiel, Apoptosis, 2008;13:702-715). Briefly, duplicate wells were treated with purified proteins (1 μM final concentration) and incubated at either 37° C. or 4° C. for different time periods. Two wells were also treated with phosphate-buffered saline (PBS) at each temperature to serve as a control. At selected time points, the media was removed and the cells were rinsed once with PBS. The cells were then washed with 1 M NaCl/PBS for 30 minutes with gentle shaking to dissociate cell surface-bound proteins (Iino et al., Arterioscler. Thromb. Vasc. Biol., 1998;18:40-46). Finally, the cells were rinsed once with PBS, trypsinized and harvested for the preparation of cell lysates and cell fractions.\nTo prepare total cell lysates, 1-3×10^6 cells were lysed by sonication in 500 μl of lysis buffer containing of 125 mM Tris-HCl (pH 6.8), 2% SDS, 10% glycerol, 50 mM sodium phosphate, 1 mM phenylmethanesulphonylfluoride (PMSF) and protease inhibitor cocktail. The lysate was kept on ice for about 10 minutes, centrifuged for 15 minutes at 10,000×g at 4° C., and the supernatant recovered. To prepare nuclear and cytosolic fractions, approximately 2×10^6 cells were harvested and washed twice with cold PBS by centrifugation at 600×g in a Beckman J-6M/E centrifuge for seven minutes at 4° C. Five volumes of ice cold cytosolic buffer (10 mM Hepes pH 7.4, 0.33 M sucrose, 1 mM MgCl2, 0.1% Triton X-100 and protease inhibitor cocktail) was added to the cells and incubated on ice for 15 minutes. The cytosolic fraction was collected by centrifugation at 900×g for five minutes at 4° C. The resulting undissolved pellet was washed twice with cytosolic buffer followed by centrifugation at 900×g for five minutes at 4° C. Finally, the resulting pellet was resuspended in five volumes of ice cold buffer containing 0.45 M NaCl in 10 mM Hepes (pH 7.4) and protease inhibitor cocktail. The suspension was incubated on ice for an additional 15 minutes to dissolve the nucleus, and subsequently centrifuged at 18,000×g for five minutes at 4° C. The resulting supernatant was collected as the nuclear extract. All samples were boiled for three minutes in the presence of 5% SDS and stored at −20° C. until use.\nThe cell lysate, cytosol and nuclear fractions were subjected to SDS-PAGE using 4-20% polyacrylamide gradient gels. […] The membranes were then probed with specific antibodies dissolved in fresh blocking buffer. Immunoreactive proteins were identified using HRP-conjugated secondary antibodies and a chemiluminescent reagent system essentially as described (Kempaiah et al., Mol. Cancer, 2007;6:20). The integrity of the cytosolic and nuclear fractions was verified using anti-α-tubulin and anti-histone-H1 antibodies, respectively (Guo et al., Am. J Physiol. Cell Physiol., 2007;292:2095-2102).\nThe relative intensity of the Western blot bands were quantified using QUANTISCAN software (Biosoft, Cambridge, U.K.). The intensities are reported in arbitrary units (A.U.) obtained by subtracting the background value from the corresponding band's mean value."}, "human tumor cell lines": {"system": "human tumor cell lines", "conditions": "cited from earlier work"}, "HT-1080 cells [2]": {"system": "HT-1080 cells", "assay": "Localization of protein in stably-transfected overexpressing HT-1080 cells, immunoblotting and immunocytochemistry", "format": "cell-based, human", "conditions": "HT-1080 cells stably transfected with cDNA (FIG. 3, FIG. 4C, 4D)", "description": "HT-1080 and HEK 293 cell lines were stably transfected to overexpress either wild-type human TFPI-2 or a mutant TFPI-2 construct lacking the carboxy-terminal tail (TFPI-2^1-188), and were maintained as described (Chand et al., Blood, 2004;103:1069-1077, Du et al., Arch. Biochem. Biophys:, 2003;417:96-104). An anti-human TFPI-2 murine monoclonal antibody designated as SK-9 was prepared as described (Du et al., Arch. Biochem. Biophys., 2003;417:96-104) and coupled to Affi-Gel 10 according to the manufacturer's recommendation. Recombinant human TFPI-2 was purified from HEK 293 serum-free conditioned media by a two-step chromatography procedure involving heparin-agarose (Sprecher et al., Proc. Natl. Acad. Sci. USA., 1994;91:3353-3357) and SK-9-AffiGel 10 affinity chromatography. In the latter procedure, heparin-agarose purified TFPI-2 was dialyzed against 50 mM Tris-HCl (pH 7.5) and applied to the SK-9-AffiGel 10 column equilibrated at room temperature with this buffer. After a wash step with 50 mM Tris-HCl (pH 7.5)/0.5 M NaCl, TFPI-2 was eluted with 0.1 M glycine (pH 2.5)/0.5 M NaCl into one-tenth volume of 1 M Tris-HCl (pH 8.8) to immediately neutralize the pH 2.5 glycine. […]"}, "HT-1080 cells [3]": {"system": "HT-1080 cells", "assay": "Confocal microscopy of Alexa Fluor 488-conjugated TFPI-2 internalization in HT-1080 cells", "format": "cell-based, human", "conditions": "50 μg/ml", "description": "The internalization of recombinant TFPI-2 in HT-1080 cells was assessed by confocal microscopy using a Zeiss LSM510-META microscope and Alexa Fluor 488-conjugated TFPI-2. Approximately 0.5 mg of recombinant TFPI-2 protein was labeled with Alexa Fluor 488 dye following the manufacturer's instructions. Alexa Fluor-conjugated protein (50 μg/ml) was added to two sets of HT-1080 cells that were grown to confluence in two-chamber culture slides and incubated either at 37° C. or 4° C. for different time periods. Cells were then washed twice with cold PBS and fixed with 4% paraformaldehyde solution for 15 minutes. The slides were further rinsed twice with cold PBS, treated with a drop of mounting medium containing 4′,6-diamidino-2-phenylindole (DAPI), and covered with a coverslip for confocal microscopy."}, "[4]": {"conditions": "five minutes, immunoblot (FIG. 4B)"}},
  "note": "“Also recorded” adds a separate entry of the source.",
  "data": [
    {"molecule": "B1", "values": [
      {"measurement": "Internalization to cytosol and nucleus of HT-1080 cells", "setting": "HT-1080 cells [1]; [4]", "value": "is internalized to both the cytosol and nuclear fractions; also recorded: rapidly internalized and translocated to the nucleus"},
      {"measurement": "Internalization to cytosol and nucleus of HT-1080 cells", "setting": "HT-1080 cells [1]; five minutes, immunoblot (FIG. 4B), listed as R24KD 1-CT", "value": "internalized and translocated to the nucleus within minutes"}
    ]},
    {"molecule": "B2", "values": [
      {"measurement": "Apoptosis induction potency relative to TFPI-2", "setting": "human tumor cell lines", "value": "more potent inducer of apoptosis than TFPI-2"},
      {"measurement": "Induction of caspase-mediated apoptosis", "setting": "human tumor cell lines; several tumor cell lines, exogenously offered, Kempaiah and Kisiel 2008", "value": "induce caspase-mediated apoptosis"},
      {"measurement": "Internalization to cytosol and nucleus of HT-1080 cells", "setting": "HT-1080 cells [1]; [4]", "value": "is not internalized to either the cytosol or nucleus; also recorded: failed to enter the cells"},
      {"measurement": "Internalization by HT-1080 cells after 48-hour incubation", "setting": "HT-1080 cells [1]; 48-hour incubation at 37° C.", "value": "failed to be internalized"}
    ]},
    {"molecule": "B3", "values": [
      {"measurement": "Localization of overexpressed protein", "setting": "HT-1080 cells [2]", "value": "failed to demonstrate nuclear localization; also recorded: confined to the cytoplasm"},
      {"measurement": "Internalization to cytosol and nucleus of HT-1080 cells", "setting": "HT-1080 cells [1]; up to 30 minutes, immunoblot (FIG. 4A)", "value": "is not internalized as readily to either the cytosol or nucleus; also recorded: slowly internalized, but failed to be transported to the nucleus"}
    ]},
    {"molecule": "B4", "values": [
      {"measurement": "Intracellular localization by confocal microscopy", "setting": "HT-1080 cells [3]; 4° C., five minutes and 10 minutes (FIG. 1D)", "value": "limited punctate distribution of TFPI-2 in the cytosol"},
      {"measurement": "Intracellular localization by confocal microscopy", "setting": "HT-1080 cells [3]; 4° C., two hour time point (FIG. 1D)", "value": "significant cytosolic and nuclear-associated TFPI-2"},
      {"measurement": "Intracellular localization by confocal microscopy", "setting": "HT-1080 cells [3]; two-hour incubation at 37° C. (FIG. 1B)", "value": "cytosolic and nuclear localization of TFPI-2; also recorded: uniform distribution of TFPI-2"}
    ]}
  ]
}
